This assay can be described thus: 1,3-butadiene production from 3-phosphonoxypent-4-enoate by using a terpene synthase (headspace GC-FID). The format is biochemical. The settings on record: 5 mg/ml enzyme, 50 mM 3-phosphonoxypent-4-enoate, 37° C., 24 hours. The procedure: The reactions were performed in sealed vials. The total volume was 0.5 ml. Final concentrations were 5 mg/ml enzyme, 50 mM 3-phosphonoxypent-4-enoate, 4 mM DTT, 50 mM MgCl2, 50 mM KCl, 50 mM Tris-HCl buffer pH 7.5. The incubation was carried out at 37° C. for 24 h. The control reactions without enzyme or without substrate were performed in parallel under the same conditions.
One ml of the gaseous phase of the reaction was collected and analyzed by Gas-Chromatography with Flame Ionization Detector (GC-FID) ((Brucker GC 450) using a RTX-alumina column (Varian), with an isocratic elution at 130° C. and nitrogen as carrier gas at flow rate of 1.5 ml/min. The retention of commercial 1,3-butadiene (Sigma) in these conditions was 7.4 min.

B1: isoprene synthase from Pueraria montana var. lobata: purified His-tagged isoprene synthase (terpene synthase), Uniprot Q6EJ97, SEQ ID NO: 30, expressed in E. coli (protein, listed as Pueraria montana)
chain: MCATSSQFTQITEHNSRRSANYQPNLWNFEFLQSLENDLKVEKLEEKATKLEEEVRCMINRVDTQPLSLLELIDDVQRLGLTYKFEKDIIKALENIVLLDENKKNKSDLHATALSFRLLRQHGFEVSQDVFERFKDKEGGFSGELKGDVQGLLSLYEASYLGFEGENLLEEARTFSITHLKNNLKEGINTKVAEQVSHALELPYHQRLHRLEARWFLDKYEPKEPHHQLLLELAKLDFNMVQTLHQKELQDLSRWWTEMGLASKLDFVRDRLMEVYFWALGMAPDPQFGECRKAVTKMFGLVTIIDDVYDVYGTLDELQLFTDAVERWDVNAINTLPDYMKLCFLALYNTVNDTSYSILKEKGHNNLSYLTKSWRELCKAFLQEAKWSNNKIIPAFSKYLENASVSSSGVALLAPSYFSVCQQQEDISDHALRSLTDFHGLVRSSCVIFRLCNDLATSAAELERGETTNSIISYMHENDGTSEEQAREELRKLIDAEWKKMNRERVSDSTLLPKAFMEIAVNMARVSHCTYQYGDGLGRPDYATENRIKLLLIDPFPINQLMYV
modifications: His tag; var. lobata
For B1, the “ratio of butadiene produced in the presence of isoprene synthase versus in the absence of enzyme (butadiene peak areas)” value was “about 5 fold”.

The record behind these values is patent US9873895B2, “Production of 1,3-dienes by enzymatic conversion of 3-hydroxyalk 4-enoates and/or 3-phosphonoxyalk-4-enoates” (Scientist of Fortune S.A., priority 2011, dated 2018).
